Source: US20090011988A1 (Genentech, published 2009)
Positions of bridges follow the written chain, without caps; N, C: chain ends. No end group written: not given here.

B1: BP-24 (peptide)
peptide: WFKTVCYEWEDEVQCYTLEEG-NH2
modifications: disulfide 6-15; N-terminus assumed
SMILES: CC(C)C[C@H](NC(=O)[C@@H](NC(=O)[C@H](Cc1ccc(O)cc1)NC(=O)[C@@H]1CSSC[C@H](NC(=O)[C@@H](NC(=O)[C@@H](NC(=O)[C@H](CCCCN)NC(=O)[C@H](Cc2ccccc2)NC(=O)[C@@H](N)Cc2c[nH]c3ccccc23)[C@@H](C)O)C(C)C)C(=O)N[C@@H](Cc2ccc(O)cc2)C(=O)N[C@@H](CCC(=O)O)C(=O)N[C@@H](Cc2c[nH]c3ccccc23)C(=O)N[C@@H](CCC(=O)O)C(=O)N[C@@H](CC(=O)O)C(=O)N[C@@H](CCC(=O)O)C(=O)N[C@@H](C(C)C)C(=O)N[C@@H](CCC(N)=O)C(=O)N1)[C@@H](C)O)C(=O)N[C@@H](CCC(=O)O)C(=O)N[C@@H](CCC(=O)O)C(=O)NCC(N)=O
notes: also called peptide of phage clone 4D3.5
B2: BP-23 (peptide)
peptide: ELDGWVCIKVGEQNLCYLAEG-NH2
modifications: disulfide 7-16; N-terminus assumed
SMILES: CC[C@H](C)[C@@H]1NC(=O)[C@@H](NC(=O)[C@@H](NC(=O)[C@H](Cc2c[nH]c3ccccc23)NC(=O)CNC(=O)[C@H](CC(=O)O)NC(=O)[C@H](CC(C)C)NC(=O)[C@@H](N)CCC(=O)O)C(C)C)CSSC[C@@H](C(=O)N[C@@H](Cc2ccc(O)cc2)C(=O)N[C@@H](CC(C)C)C(=O)N[C@@H](C)C(=O)N[C@@H](CCC(=O)O)C(=O)NCC(N)=O)NC(=O)[C@H](CC(C)C)NC(=O)[C@H](CC(N)=O)NC(=O)[C@H](CCC(N)=O)NC(=O)[C@H](CCC(=O)O)NC(=O)CNC(=O)[C@H](C(C)C)NC(=O)[C@H](CCCCN)NC1=O
notes: also called peptide of phage clone 4C3.2
B3: 23B3.1 (peptide)
peptide displayed on M13 phage as a fusion to g8p: TGVDCQCGPVHCVCMDWA
notes: whole phage particle in the assay; also called peptide-phage clone 23B3.1 (g8 display)
B4: 23B3.7 (peptide)
peptide displayed on M13 phage as a fusion to g8p: GDVECIEGPWGELCVWAD
modifications: not fully specified (bridges); cysteine pairing not given here; also: displayed on phage coat protein g8
notes: whole phage particle in the assay; also called peptide-phage clone 23B3.7 (g8 display)
B5: 23B3.5 (peptide)
peptide displayed on M13 phage as a fusion to g8p: DKEVCYLGPETWLCFWWP
modifications: not fully specified (bridges); cysteine pairing not given here; also: displayed on phage coat protein g8
notes: whole phage particle in the assay; also called peptide-phage clone 23B3.5 (g8 display)
B6: 23B3.6 (peptide)
peptide displayed on M13 phage as a fusion to g8p: EVLLCSDGPQLYLCELYA
modifications: not fully specified (bridges); cysteine pairing not given here; also: displayed on phage coat protein g8
notes: whole phage particle in the assay; also called peptide-phage clone 23B3.6 (g8 display)
B7: 23D3.1 (peptide)
peptide displayed on M13 phage as a fusion to g8p: FGGWSCQPTWVDVYVCNFEE
modifications: not fully specified (bridges); cysteine pairing not given here; also: displayed on phage coat protein g8
notes: whole phage particle in the assay; also called peptide-phage clone 23D3.1 (g8 display)
B8: 23D3.3 (peptide)
peptide displayed on M13 phage as a fusion to g8p: AMWVCVSDWETVEECIQYMY
modifications: not fully specified (bridges); cysteine pairing not given here; also: displayed on phage coat protein g8
notes: whole phage particle in the assay; also called peptide-phage clone 23D3.3 (g8 display)
B9: 23D3.4 (peptide)
peptide displayed on M13 phage as a fusion to g8p: AMWVCVSDWETVEECIQYMY
modifications: not fully specified (bridges); cysteine pairing not given here; also: displayed on phage coat protein g8
notes: whole phage particle in the assay; also called peptide-phage clone 23D3.4 (g8 display)
B10: 23D3.5 (peptide)
peptide displayed on M13 phage as a fusion to g8p: AMWVCVSDWETVEECIQYMY
modifications: not fully specified (bridges); cysteine pairing not given here; also: displayed on phage as g8p fusion
notes: whole phage particle in the assay; also called peptide-phage clone 23D3.5 (g8 display)
B11: 23B3.2 (peptide)
peptide displayed on M13 phage as a fusion to g8p: EVLLCSDGPQLYLCELYA
modifications: not fully specified (bridges); cysteine pairing not given here; also: displayed on phage coat protein g8
notes: whole phage particle in the assay; also called peptide-phage clone 23B3.2 (g8 display)
B12: 23D3.2 (peptide)
peptide displayed on M13 phage as a fusion to g8p: AMWVCVSDWETVEECIQYMY
modifications: not fully specified (bridges); cysteine pairing not given here; also: displayed on phage coat protein g8
notes: whole phage particle in the assay; also called peptide-phage clone 23D3.2 (g8 display)
B13: 23B3.4 (peptide)
peptide displayed on M13 phage as a fusion to g8p: SGVECVWGPQWGFCVEEY
modifications: not fully specified (bridges); cysteine pairing not given here; also: displayed on phage coat protein g8
notes: whole phage particle in the assay; also called peptide-phage clone 23B3.4 (g8 display)
B14: 23D3.6 (peptide)
peptide displayed on M13 phage as a fusion to g8p: TNWFFVCESGHQDICWLAEE
modifications: not fully specified (bridges); cysteine pairing not given here; also: displayed on phage as g8p fusion
notes: whole phage particle in the assay; also called peptide-phage clone 23D3.6 (g8 display)
B15: BP3-39 (peptide)
peptide: SEEVCWPVAEWYLCN-NH2
modifications: disulfide 5-14; N-terminus assumed
SMILES: CC(C)C[C@@H]1NC(=O)[C@H](Cc2ccc(O)cc2)NC(=O)[C@H](Cc2c[nH]c3ccccc23)NC(=O)[C@H](CCC(=O)O)NC(=O)[C@H](C)NC(=O)[C@H](C(C)C)NC(=O)[C@@H]2CCCN2C(=O)[C@H](Cc2c[nH]c3ccccc23)NC(=O)[C@@H](NC(=O)[C@@H](NC(=O)[C@H](CCC(=O)O)NC(=O)[C@H](CCC(=O)O)NC(=O)[C@@H](N)CO)C(C)C)CSSC[C@@H](C(=O)N[C@@H](CC(N)=O)C(N)=O)NC1=O
B16: BP3-40 (peptide)
peptide: Ac-SEEVCWPVAEWYLCN-NH2
modifications: disulfide 5-14
SMILES: CC(=O)N[C@@H](CO)C(=O)N[C@@H](CCC(=O)O)C(=O)N[C@@H](CCC(=O)O)C(=O)N[C@H](C(=O)N[C@H]1CSSC[C@@H](C(=O)N[C@@H](CC(N)=O)C(N)=O)NC(=O)[C@H](CC(C)C)NC(=O)[C@H](Cc2ccc(O)cc2)NC(=O)[C@H](Cc2c[nH]c3ccccc23)NC(=O)[C@H](CCC(=O)O)NC(=O)[C@H](C)NC(=O)[C@H](C(C)C)NC(=O)[C@@H]2CCCN2C(=O)[C@H](Cc2c[nH]c3ccccc23)NC1=O)C(C)C

target: T1, recombinant human IGFBP-3 (human, UniProt P17936 28-291); experiment: BIAcore competition, IGFBP-3 to immobilized IGF-1
Procedure: IGF-1 was immobilized on a dextran chip for inhibition assays using a BIACORE™ 2000 surface-plasmon-resonance device (BIAcore, Inc., Piscataway, N.J.) to measure free binding protein. IGF-1 was biotinylated as described above, and injected over a chip to which streptavidin had been coupled (BIAcore, Inc.) to give 400 to 800 RU (response units) of immobilized IGF-1. […] After incubation for >1 hour at room temperature, an aliquot of 20:L was injected at a flow rate of 20:L/min over the IGF-1 chip. […]

T1 sequence (P17936 28-291 limits assumed): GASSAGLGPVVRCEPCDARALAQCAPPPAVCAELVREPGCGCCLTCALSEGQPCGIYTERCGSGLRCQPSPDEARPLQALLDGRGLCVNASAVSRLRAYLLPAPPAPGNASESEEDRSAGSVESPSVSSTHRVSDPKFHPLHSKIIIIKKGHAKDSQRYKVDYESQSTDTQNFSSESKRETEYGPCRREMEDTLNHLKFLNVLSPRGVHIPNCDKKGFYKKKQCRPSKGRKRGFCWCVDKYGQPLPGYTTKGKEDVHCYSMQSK

For B1, which IC50 is on record?
The IC50 was 100 to 300 µM.

How did the IC50 turn out when VAWEVCWDRHDQGYICTTDS (disulfide 6-16) [BP3-4D3.11] was run?
Its IC50 is less than 10 µM.

AWEVCWDRHQGYICTTDS (disulfide 5-14) [BP3-4D3.11DEL] was tested. Which IC50 did it give?
The IC50 was 80 µM.

For EESECFEGPGYVICGLVG (disulfide 5-14) [BP3-4B3.3], which IC50 is on record?
Its IC50 is 80 µM.

How did the IC50 turn out when TVANCDCYMPLCLCYDSD (disulfide 7-12; disulfide 5-14 (inferred)) [BP3-08] was run?
The IC50 was 15 µM.

With VCWPVAEWYLCNMWG (disulfide 2-11) [BP3-16] as the binder, how does the IC50 read?
The IC50 was 30 µM.

Which IC50 does the source give for TGVDCQCGPVHCVCMDWA (disulfide 7-12; disulfide 5-14 (inferred)) [BP3-06] here?
The IC50 was 5 µM.

DMGVCADGPWMYVCEWTE (disulfide 5-14) [BP3-02-ox] was tested. Which IC50 did it give?
Its IC50 is 12 µM.

B2 was tested. Which IC50 did it give?
The IC50 was 220 µM.

target: T1, recombinant human IGFBP-3; experiment: phage ELISA (IGF-blocking phage assay): g8 peptide-phage on an IGFBP-3-coated plate, without and with IGF-1; OD492
Procedure: The plates were then washed ten times, as above, and a solution of rabbit anti-phage antibody mixed with a goat-anti-rabbit conjugate of horseradish peroxidase was added. After an incubation of 1 hour at room temperature, the plates were developed with a chromogenic substrate, o-phenylenediamine (Sigma). The reaction was stopped with addition of ½ volume of 2.5 M H₂SO₄. Optical density at 490 nm was measured on a spectrophotometric plate reader.
In each case, the phagemid clone was grown from a single colony overnight at 37° C. in a culture volume of 5 ml. The phage particles were prepared as described above.

Does B3 bind?
Result: binds

Does B4 bind?
Result: binds

Does B5 bind?
Result: binds

Does B6 bind?
Result: binds

Does B7 bind?
Result: binds

Does B8 bind?
Result: binds

Does B9 bind?
Result: binds

Does B10 bind?
Result: binds

Does B11 bind?
Result: binds

Does B12 bind?
Result: binds

Does B13 bind?
Result: binds

Does B14 bind?
Result: binds

target: T1, recombinant human IGFBP-3; experiment: BIAcore competition, IGFBP-3 to IGF-1
Procedure: IGF-1 was immobilized on a dextran chip for inhibition assays using a BIACORE™ 2000 surface-plasmon-resonance device (BIAcore, Inc., Piscataway, N.J.) to measure free binding protein. IGF-1 was biotinylated as described above, and injected over a chip to which streptavidin had been coupled (BIAcore, Inc.) to give 400 to 800 RU (response units) of immobilized IGF-1. […] After incubation for >1 hour at room temperature, an aliquot of 20:L was injected at a flow rate of 20:L/min over the IGF-1 chip.

For B15, which IC50 is on record?
The IC50 was 0.66 µM.

B16 was tested. Which IC50 did it give?
Its IC50 is 0.66 µM.

Which IC50 does the source give for ASEEVCWPVAEWYLCNMWGR (disulfide 6-15) [4D3.3P] here?
The IC50 was 5.6 µM.

With GPETCWPVAEWYLCN (disulfide 5-14) [BP3-41] as the binder, how does the IC50 read?
Its IC50 is 4 µM.

How did the IC50 turn out when CWPVAEWYLCN (disulfide 1-10) [BP3-25] was run?
Its IC50 is 46 µM.

How did the IC50 turn out when ASEEVCWPVAEWYLCN (disulfide 6-15) [BP3-30] was run?
The IC50 was 5.6 µM.

Which IC50 does the source give for EVCWPVAEWYLCN (disulfide 3-12) [BP3-27] here?
The IC50 was 2.8 µM.

EEVCWPVAEWYLCN (disulfide 4-13) [BP3-28] was tested. Which IC50 did it give?
Its IC50 is 5.4 µM.

For WPVAEWYLCN (only one Cys, no intact disulfide) [BP3-24], which IC50 is on record?
The IC50 was greater than 1000 µM.
